Data on twelve molecules can be found in patent publication US20090099087A1 (STC UNM, published 2009).

For assay [1], the target named is T1, porcine trypsin (porcine, UniProt P00761 9-231). Put plainly: chromogenic amidolytic inhibition assay, trypsin; reference BPTI. As for the experimental part:
(§1) Trypsin and plasmin inhibition assays were performed as described elsewhere (Petersen et al., Biochemistry, 35:266-272, 1996). Briefly, trypsin and plasmin were incubated with various concentrations of inhibitor preparations for 15 minutes at 37° C. in a 96-well microtitration plate. The chromogenic substrate S-2251 was then added and residual amidolytic activity was measured in a Molecular Devices UVₘₐₓ kinetic microplate reader.

For assay [2], the target named is T1, porcine trypsin. As to the kind of experiment: chromogenic amidolytic inhibition assay, trypsin; reference full-length TFPI-2. As for the experimental part:
as §1

The target of assay [3] is T1, porcine trypsin. Put plainly: chromogenic (S-2251) amidolytic inhibition assay, trypsin 50 nM. As for the experimental part: as §1
Assay [4] deals with T2, human plasmin (human, UniProt P00747 97-810, limits assumed). Put plainly: chromogenic amidolytic inhibition assay, plasmin; reference BPTI. The procedure: as §1
Assay [5] addresses T3, factor VIIa-tissue factor complex (human recombinant factor VIIa with recombinant soluble human tissue factor) (human, UniProt P08709 61-466; P13726 33-251, limits assumed).
T3 construct: The complex was formed from 50 nM factor VIIa and 100 nM soluble tissue factor in 5 mM CaCl2; Factor VIIa is itself a two-chain enzyme; also called FVIIa-TF; VIIa-TF
Put plainly: chromogenic (S-2288) amidolytic inhibition assay, FVIIa 50 nM / soluble TF 100 nM. The procedure: (§2) Recombinant soluble human tissue factor (100 nM) and factor VIIa (50 nM) were incubated in a TBS-BSA buffer/5 mM CaCl₂ for 15 minutes at 37° C. Following this incubation, aliquots (100 μl) were dispensed into a 96-well microtitration plate and treated with serial dilutions of inhibitors dissolved in TBS buffer. After 15 minutes of incubation, 30 μl of S-2288 (final concentration, 1 mM) was added to each well and the absorbance at 405 nm was determined as described earlier.

The target in assay [6] is T2, human plasmin. As to the kind of experiment: chromogenic amidolytic inhibition assay, plasmin; reference full-length TFPI-2. The procedure:
as §1

The target in assay [7] is T2, human plasmin. As to the kind of experiment: chromogenic (S-2251) amidolytic inhibition assay, plasmin 30 nM. The procedure: Example I provides an illustrative example of assessment of the inhibitory activity. […] The chromogenic substrate S-2251 (D-Val-Leu-Lys-p-nitroanilide; DiaPharma Group Inc., West Chester, Ohio) was then added and residual plasmin amidolytic activity was measured at 405 nm in a Molecular Devices UVₘₐₓ kinetic microplate reader.
as §1

Assay [8] concerns the target T3, factor VIIa-tissue factor complex …. As to the kind of experiment: chromogenic amidolytic inhibition assay, FVIIa-TF; reference wild-type KD1. As for the experimental part: as §2
Assay [9] has as its target T1, porcine trypsin. Put plainly: chromogenic amidolytic inhibition assay; reference wild-type KD1. As for the experimental part:
as §1, §2

The target in assay [10] is T2, human plasmin. The assay is described as above. As for the experimental part: as §1, §2
Assay [11] has as its target T3, factor VIIa-tissue factor complex …. Described as above. The procedure:
as §1, §2

Assay [12] concerns the target T2, human plasmin. Put plainly: chromogenic amidolytic inhibition assay, plasmin; reference wild-type KD1. The procedure:
as §1

As a reminder, the Ki is a measure of affinity in units of concentration, obtained from inhibition or displacement.

Changes are numbered by the printed parent chain. Names may count otherwise.

T3 sequence (P08709 61-466 limits assumed, chain 1 of 2): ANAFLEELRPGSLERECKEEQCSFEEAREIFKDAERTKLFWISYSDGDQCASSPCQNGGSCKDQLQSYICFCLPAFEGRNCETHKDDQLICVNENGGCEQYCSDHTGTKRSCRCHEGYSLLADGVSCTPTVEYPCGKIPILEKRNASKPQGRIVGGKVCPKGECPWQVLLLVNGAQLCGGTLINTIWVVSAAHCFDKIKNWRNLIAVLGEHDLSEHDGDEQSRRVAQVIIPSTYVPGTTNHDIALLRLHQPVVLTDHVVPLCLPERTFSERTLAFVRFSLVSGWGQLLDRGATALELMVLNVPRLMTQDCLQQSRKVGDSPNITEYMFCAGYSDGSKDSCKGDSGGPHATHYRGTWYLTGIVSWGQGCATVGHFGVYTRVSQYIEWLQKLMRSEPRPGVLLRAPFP
T3 sequence (P13726 33-251 limits assumed, chain 2 of 2): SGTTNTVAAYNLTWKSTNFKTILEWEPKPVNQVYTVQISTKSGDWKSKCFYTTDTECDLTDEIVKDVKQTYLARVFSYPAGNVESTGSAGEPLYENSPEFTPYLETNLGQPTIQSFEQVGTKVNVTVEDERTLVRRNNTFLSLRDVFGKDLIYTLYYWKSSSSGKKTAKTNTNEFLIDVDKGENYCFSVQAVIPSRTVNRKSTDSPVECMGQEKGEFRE
T1 sequence (P00761 9-231 limits assumed): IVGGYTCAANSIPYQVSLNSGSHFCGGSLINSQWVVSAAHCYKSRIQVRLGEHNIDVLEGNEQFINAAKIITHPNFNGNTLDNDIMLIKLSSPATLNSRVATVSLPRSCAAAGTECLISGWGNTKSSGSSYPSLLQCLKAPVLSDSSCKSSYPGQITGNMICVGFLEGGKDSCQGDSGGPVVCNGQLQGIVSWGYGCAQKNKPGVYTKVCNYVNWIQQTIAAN
T2 sequence (P00747 97-810 limits assumed): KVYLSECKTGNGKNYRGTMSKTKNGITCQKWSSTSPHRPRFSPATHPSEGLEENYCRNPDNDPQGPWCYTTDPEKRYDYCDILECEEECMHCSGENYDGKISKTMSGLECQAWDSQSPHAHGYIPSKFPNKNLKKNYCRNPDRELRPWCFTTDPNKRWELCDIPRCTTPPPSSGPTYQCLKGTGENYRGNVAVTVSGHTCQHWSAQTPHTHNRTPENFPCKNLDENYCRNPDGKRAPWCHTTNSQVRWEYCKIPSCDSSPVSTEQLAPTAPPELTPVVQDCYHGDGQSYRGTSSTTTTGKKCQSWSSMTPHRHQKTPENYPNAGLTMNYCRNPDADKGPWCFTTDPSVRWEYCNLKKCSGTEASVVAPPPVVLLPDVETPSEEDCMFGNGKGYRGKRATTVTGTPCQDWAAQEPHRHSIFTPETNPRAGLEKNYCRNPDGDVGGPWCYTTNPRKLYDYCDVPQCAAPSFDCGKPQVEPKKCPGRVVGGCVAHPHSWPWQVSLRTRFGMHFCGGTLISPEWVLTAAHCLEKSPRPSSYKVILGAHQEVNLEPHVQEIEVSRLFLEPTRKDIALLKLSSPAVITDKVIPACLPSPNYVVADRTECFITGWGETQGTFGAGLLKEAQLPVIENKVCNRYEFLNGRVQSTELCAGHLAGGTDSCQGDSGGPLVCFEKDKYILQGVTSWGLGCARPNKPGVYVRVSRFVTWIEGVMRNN

B1: wild-type first Kunitz-type domain (KD1) of human TFPI-2, His-tagged, E. coli (other)
chain: DAAQEPTGNNAEICLLPLDYGPCRALLLRYYYDRYTQSCRQFLYGGCEGNANNFYTWEACDDACWRIEKVPKV
notes: the monomer was purified; also called wild-type KD1; TFPI-2 KD1; not shown: N-terminal decahistidine-tag leader and enterokinase cleavage site from pET19b
Regarding B1, the “fold less potent than BPTI” value with porcine trypsin [1] amounted to 2 fold. Also, the “fold higher inhibitory activity than full-length TFPI-2” value in the assay with porcine trypsin [2] is approximately 2 fold. For the same molecule, the Ki with porcine trypsin [3] came out at 13 nM; in [5] it was 1640 nM; in the assay with human plasmin [7], 3 nM. In addition, the “fold higher Ki than BPTI” value with human plasmin [4] was approximately 3 fold. Further, the “fold more potent than full-length TFPI-2” value in the assay with human plasmin [6] worked out at 3 fold.

B2: R24K KD1 (other)
chain: B1 chain with R24K
notes: also called R24K (R15K); R24K KD1 polypeptide; not shown: N-terminal extension from the expression vector
In the case of B2, the Ki with porcine trypsin [3] worked out at 8 nM; in [5] it was 8550 nM; with human plasmin [7], 0.85 nM. The “fold reduction of inhibitory activity (against wild-type KD1)” value in assay [8] was approximately 5 fold.

B3: R29A KD1 (other)
chain: B1 chain with R29A
notes: Point mutant of His-tagged KD1, KD1 numbering; also called R29A (R20A); not shown: N-terminal decahistidine-tag leader and enterokinase cleavage site from pET19b
For the molecule B3, the Ki is 52 nM with porcine trypsin [3], 3930 nM in assay [5] and 12 nM with human plasmin [7].

B4: R24Q KD1 (other)
chain: B1 chain with R24Q
notes: Point mutant of His-tagged KD1, KD1 numbering; also called R24Q (R15Q); not shown: N-terminal decahistidine-tag leader and enterokinase cleavage site from pET19b
With B4, the Ki with porcine trypsin [3] worked out at 296 nM; in assay [5], 55700 nM; with human plasmin [7] it was 48 nM.

B5: G21D KD1 (other)
chain: B1 chain with G21D
notes: Point mutant of His-tagged KD1, KD1 numbering; also called G21D (G12D); not shown: N-terminal decahistidine-tag leader and enterokinase cleavage site from pET19b
Turning to B5, the Ki in the assay with porcine trypsin [3] is 42 nM; in [5] it was 26000 nM; with human plasmin [7], 59 nM.

B6: L26Q KD1 (other)
chain: B1 chain with L26Q
notes: Point mutant of His-tagged KD1, KD1 numbering; also called L26Q (L17Q); not shown: N-terminal decahistidine-tag leader and enterokinase cleavage site from pET19b
As to B6, the Ki was determined as 162 nM with porcine trypsin [3], 54000 nM in assay [5] and 29 nM in the assay with human plasmin [7]. Also, the “fold reduction in inhibitory potency (against wild-type KD1)” value (with porcine trypsin [9]; with human plasmin [10]; in assay [11]) was not below 10 fold in each case.

B7: D19A KD1 (other)
chain: B1 chain with D19A
notes: Point mutant of His-tagged KD1, KD1 numbering; also called D19A (D10A); not shown: N-terminal decahistidine-tag leader and enterokinase cleavage site from pET19b
Turning to B7, the Ki came to 15 nM with porcine trypsin [3], 1960 nM in [5] and 118 nM in the assay with human plasmin [7]. Besides, the “fold loss of inhibitory activity (against wild-type KD1)” value in the assay with human plasmin [12] was approximately 40 fold.

B8: F42A KD1 (other)
chain: B1 chain with F42A
notes: Point mutant of His-tagged KD1, KD1 numbering; also called F42A (F33A); not shown: N-terminal decahistidine-tag leader and enterokinase cleavage site from pET19b
In the case of B8, the Ki was found to be 155 nM with porcine trypsin [3], 61200 nM in assay [5] and 79 nM with human plasmin [7].

B9: Y20A KD1 (other)
chain: B1 chain with Y20A
notes: Point mutant of His-tagged KD1, KD1 numbering; also called Y20A (Y11A); not shown: N-terminal decahistidine-tag leader and enterokinase cleavage site from pET19b
As to B9, the values for the Ki (with porcine trypsin [3]; in assay [5]; in the assay with human plasmin [7]) were 8 nM, 1350 nM and 16 nM, respectively.

B10: R29K KD1 (other)
chain: B1 chain with R29K
notes: Point mutant of His-tagged KD1, KD1 numbering; also called R29K (R20K); not shown: N-terminal decahistidine-tag leader and enterokinase cleavage site from pET19b
Turning to B10, the results for the Ki (with porcine trypsin [3]; in [5]; in the assay with human plasmin [7]) were 20 nM, 1120 nM and 5 nM, respectively.

B11: R29D KD1 (other)
chain: B1 chain with R29D
notes: Point mutant of His-tagged KD1, KD1 numbering; also called R29D (R20D); not shown: N-terminal decahistidine-tag leader and enterokinase cleavage site from pET19b
Regarding B11, the Ki in the assay with porcine trypsin [3] is 4600 nM; in [5] it was 44600 nM; in the assay with human plasmin [7], 261 nM.

B12: recombinant human tissue factor pathway inhibitor-2 (TFPI-2), full-length (other)
chain: DAAQEPTGNNAEICLLPLDYGPCRALLLRYYYDRYTQSCRQFLYGGCEGNANNFYTWEACDDACWRIEKVPKVCRLQVSVDDQCEGSTEKYFFNLSSMTCEKFFSGGCHRNRIENRFPDEATCMGFCAPKKIPSFCYSPKDEGLCSANVTRYYFNPRYRTCDAFTYTGCGGNDNNFVSREDCKRACAKALKKKKKMPKLRFASRIRKIRKKQF
notes: Eukaryotically expressed recombinant full-length protein, described as a 213 amino acid polypeptide and prepared by a published method (Sprecher et al.); also called full-length TFPI-2; intact TFPI-2
Turning to B12, the Ki was determined as 21 nM with porcine trypsin [3], 1910 nM in assay [5] and 9 nM with human plasmin [7].
